Measured values from patent US20250223358A1 (ANTENGENE BIOLOGICS, published 2025).
Substitutions are numbered along the chain they refer to. Names may count otherwise. One block for each binder: values may come before it.

What was measured:
[1] = biological target: T1, human CD3 (human, UniProt P07766 23-207; P04234 22-171; P09693 23-182); assay: FACS on Jurkat cells
T1 construct: whole, on cells; also called hCD3; CD3 on Jurkat cells

[2] = biological target: T1, human CD3; assay: cell-based or functional assay

T1 sequence (P07766 23-207, chain 1 of 3): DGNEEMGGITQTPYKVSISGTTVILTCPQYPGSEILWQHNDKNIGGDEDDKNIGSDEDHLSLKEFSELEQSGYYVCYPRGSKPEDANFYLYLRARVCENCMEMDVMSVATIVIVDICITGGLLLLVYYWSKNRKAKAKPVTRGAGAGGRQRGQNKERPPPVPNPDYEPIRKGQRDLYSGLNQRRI
T1 sequence (P04234 22-171, chain 2 of 3): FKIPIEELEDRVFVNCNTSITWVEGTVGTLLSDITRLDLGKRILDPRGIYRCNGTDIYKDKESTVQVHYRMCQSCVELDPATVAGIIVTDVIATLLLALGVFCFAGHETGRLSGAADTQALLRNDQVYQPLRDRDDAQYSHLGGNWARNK
T1 sequence (P09693 23-182, chain 3 of 3): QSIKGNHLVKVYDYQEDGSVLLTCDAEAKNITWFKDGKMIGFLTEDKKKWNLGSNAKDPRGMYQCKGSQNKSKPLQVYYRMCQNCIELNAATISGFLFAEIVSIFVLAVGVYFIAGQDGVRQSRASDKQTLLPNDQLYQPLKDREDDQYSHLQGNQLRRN

B1: hu40E9-L2H3 (antibody, V domains shown)
VH: EVQLVQSGAEVKKPGSSVKVSCKASGYTFSSYVIHWVRQAPGQGLEWMGYINPYNDVIKYNEKFKGRVTLTSDKSTSTAYMELSSLRSEDTAVYYCARDSYYSYDGFAYWGQGTLVTVSS
VL: EIVLTQSPDFQSVTPKEKVTITCSASSSVSYMHWYQQKPDQSPKRLIYDTSKLASGVPSRFSGSGSGTDFTLTINSLEAEDAATYYCQQWSSNPPTFGGGTKVEIK
notes: humanized 40-C12-C10-E9
EC50 [1]: 0.65 nM
Top FACS signal [1]: 1580
EC50_Fold change (Jurkat-NFAT-luciferase activation, normalized to ch40-C12-C10-E9) [2]: 2.43 fold
Top FACS signal_Fold change (Jurkat-NFAT-luciferase activation, normalized to ch40-C12-C10-E9) [2]: 1.18 fold

B2: hu40E9-L2H3-G106A.H (antibody, V domains shown)
VH: B1 VH with G106A
VL: B1 VL
EC50 [1]: 2.39 nM
Top FACS signal [1]: 771
EC50_Fold change (Jurkat-NFAT-luciferase activation, normalized to ch40-C12-C10-E9) [2]: 4.95 fold
Top FACS signal_Fold change (Jurkat-NFAT-luciferase activation, normalized to ch40-C12-C10-E9) [2]: 0.99 fold

B4: hu40E9-L2H2 (antibody, V domains shown)
VH: B1 VH with L70I, S72A
VL: B1 VL
notes: humanized 40-C12-C10-E9
EC50 [1]: 0.81 nM
Top FACS signal [1]: 1570
EC50_Fold change (Jurkat-NFAT-luciferase activation, normalized to ch40-C12-C10-E9) [2]: 2.14 fold
Top FACS signal_Fold change (Jurkat-NFAT-luciferase activation, normalized to ch40-C12-C10-E9) [2]: 1.28 fold

B9: hu40E9-L2H3-D105E.H (antibody, V domains shown)
VH: B1 VH with D105E
VL: B1 VL
EC50 [1]: 1.16 nM
Top FACS signal [1]: 1410
EC50_Fold change (Jurkat-NFAT-luciferase activation, normalized to ch40-C12-C10-E9) [2]: 3.77 fold
Top FACS signal_Fold change (Jurkat-NFAT-luciferase activation, normalized to ch40-C12-C10-E9) [2]: 0.74 fold

The next lines start with the values.

EC50 [1]: 0.63 nM
Top FACS signal [1]: 1420
EC50_Fold change (Jurkat-NFAT-luciferase activation, normalized to ch40-C12-C10-E9) [2]: 0.81 fold
Top FACS signal_Fold change (Jurkat-NFAT-luciferase activation, normalized to ch40-C12-C10-E9) [2]: 1.07 fold
B3: hu40E9-L2H3-N93R.L (antibody, V domains shown)
VH: B1 VH
VL: B1 VL with N93R

EC50 [1]: 0.32 nM
Top FACS signal [1]: 1450
EC50_Fold change (Jurkat-NFAT-luciferase activation, normalized to ch40-C12-C10-E9) [2]: 0.65 fold
Top FACS signal_Fold change (Jurkat-NFAT-luciferase activation, normalized to ch40-C12-C10-E9) [2]: 0.82 fold
B5: hu40E9-L2H3-D56G.H (antibody, V domains shown)
VH: B1 VH with D56G
VL: B1 VL

EC50 [1]: 0.56 nM
Top FACS signal [1]: 1480
EC50_Fold change (Jurkat-NFAT-luciferase activation, normalized to ch40-C12-C10-E9) [2]: 1.95 fold
Top FACS signal_Fold change (Jurkat-NFAT-luciferase activation, normalized to ch40-C12-C10-E9) [2]: 0.81 fold
B6: hu40E9-L2H3-D105R.H (antibody, V domains shown)
VH: B1 VH with D105R
VL: B1 VL

EC50 [1]: 0.31 nM
Top FACS signal [1]: 957
EC50_Fold change (Jurkat-NFAT-luciferase activation, normalized to ch40-C12-C10-E9) [2]: 1.19 fold
Top FACS signal_Fold change (Jurkat-NFAT-luciferase activation, normalized to ch40-C12-C10-E9) [2]: 0.91 fold
B7: hu40E9-L2H3-D99E.H (antibody, V domains shown)
VH: B1 VH with D99E
VL: B1 VL

EC50 [1]: 0.73 nM
Top FACS signal [1]: 892
EC50_Fold change (Jurkat-NFAT-luciferase activation, normalized to ch40-C12-C10-E9) [2]: 5.73 fold
Top FACS signal_Fold change (Jurkat-NFAT-luciferase activation, normalized to ch40-C12-C10-E9) [2]: 1.37 fold
B8: hu40E9-L2H1 (antibody, V domains shown)
VH: B1 VH with Y27G, L70I, S72A
VL: B1 VL
notes: humanized 40-C12-C10-E9

EC50 [1]: 0.51 nM
Top FACS signal [1]: 1160
EC50_Fold change (Jurkat-NFAT-luciferase activation, normalized to ch40-C12-C10-E9) [2]: 1.35 fold
Top FACS signal_Fold change (Jurkat-NFAT-luciferase activation, normalized to ch40-C12-C10-E9) [2]: 1.03 fold
B10: hu40E9-L2H3-N55S.H (antibody, V domains shown)
VH: B1 VH with N55S
VL: B1 VL
